Data from US6335019B1, “Methods for treating sensitivity to protein allergen using peptides which include a T cell epitope recognized by a T cell receptor specific for the protein allergen” (Immulogic Pharmaceutical Corp., priority 1989, dated 2002).

Columns and labels:
[1] = test system: T cells from patients allergic to ragweed; assay: T cell proliferation of ragweed allergic patient T cells to ragweed proteins and recombinant lysates (tritiated thymidine); type: cell-based, human; conditions: for T cell recognition and proliferation (in words): T cells previously stimulated with mixed ragweed pollen extract, summary of Table 4
From the text: T cells from patients allergic to ragweed, previously stimulated with a mixed ragweed pollen extract, can recognize and proliferate in response to pollen extract, ragweed skin test reagent (RWST), affinity purified Amb a I protein and crude bacterial lysates containing recombinant Amb a I gene products IA, IB and IC (Table 4). […] The use of crude bacterial lysates as antigens precludes a firm conclusion form the negative responses, since the relative levels of recombinant proteins in lysate have not been determined.
Peripheral blood mononuclear cells (PBMC) were purified from 60 ml of heparinized blood from ragweed-allergic patients. PBMC were subsequently treated as described below, although in individual cases, the length of time of cultivation with IL-2 and IL-4 and the specific ragweed proteins and peptides used for stimulation varied. As an example, ten ml of patient 222 PBMC at 10^6/ml were cultured at 37° C. for 7 days in the presence of 20 micrograms aqueous ragweed pollen extract/ml RPMI-1640 supplemented with 5% pooled human AB serum. Viable cells were purified by Ficoll-Hypaque centrifugation and cultured for three weeks at 5 units recombinant human IL-2/ml and 5 units recombinant human IL-4/ml. The resting T cells were then restimulated (secondary) with 20 micrograms aqueous ragweed pollen extract/ml at a density of 2×10^5 cells/ml in the presence of X-irradiated (3500 RADS) autologous PBMC (5×10^5/ml) for three days, purified by Ficoll-Hypaque centrifugation and grown in 5 units IL-2/ml and 5 units IL-4/ml for two weeks. For assay, 2×10^4 resting secondary T cells were restimulated (tertiary) in the presence of 5×10^4 X-irradiated (3500 RADS) autologous PBMC or 2×10^4 autologous Epstein-Barr virus-transformed B cells (20,000 RADS) with various concentrations of allergen or their fragments in a volume of 200 microliters in 96-well round bottom assay plates for 3 days. Each well then received 1 microCurie tritiated (methyl) thymidine for 16 hours. The counts incorporated were collected onto glass fiber filters and processed for liquid scintillation counting. […] Antigens used: IPC aqueous pollen extract (pollen), Hollister-Stier ragweed skin test extract (RWST), ALK cat epithelium skin test extract (CST), affinity 4B5/B7 antibody purified (dialyzed) Amb a I (B7), and chromatographically purified Amb a I and (Amb a I). Medium only control is shown as a line with no symbol. Alternatively, PBMC were sometimes carried only into a secondary assay (as outlined above for a tertiary assay) with 20 micrograms aqueous pollen extract 7 days, followed by culture in 5 units IL-2/ml and 5 units IL-4/ml for 2-3 weeks. […] Secondary and tertiary assays of a panel of ragweed allergic patients were performed using synthetic peptides derived from the sequences of various ragweed pollen proteins. […] Another four peptides (RAE15.6, RAE3.D, RAE28.1, RAE26.15) which are also derived from the sequence of the same three cDNA's could stimulate 35 to 58% of the patients' T cells. One peptide (RAE4) which is derived from the cDNA of IPC Clone 5 could also stimulate 25% of the patients' T cells. […] By this method it is possible to identify novel therapeutic and diagnostics entities for use in the treatment and the diagnosis of ragweed allergy.

[2] = test system: goat anti-Amb a I antibody; assay: Western blot of E. coli-expressed recombinant Amb a I / Amb a II with goat anti-Amb a I antibody (FIG. 19); type: binding
Method: Furthermore, full-length and truncated cDNAs encoding several members of the Amb a I multigene family, as well as Amb a II, were cloned in-frame into the expression vector pTrc99 (Amann et al. Gene, 69:301-315, (1988)) and transformed into the JM109 host. Expression of recombinant Amb a I and Amb a II protein was induced by 1 mM isopropyl-β-D-thiogalactopyranoside, cells were harvested, lysozyme treated, sonicated and insoluble inclusion bodies recovered by a low speed centrifugation. Recombinant Amb a I and Amb a II protein present in the recovered pellet was solubilized in buffer containing 8M urea, 50 mM Tris HC1 pH8.0, 50 mM NaCl, 1 mM EDTA, 1 mM dithiothreitol, 1 mM phenylmethylsulfonyl fluoride. After solubilization, the crude urea lysate was dialyzed at 4° C. against PBS. […] This antigenic cross-reactivity is consistent with the observed sequence homology of the cDNAs (see FIG. 16).
Isoelectric focusing was done on a Hoeffer gel apparatus with 15 μg of crude soluble pollen protein. The gel consisted of 7.5% acrylamide with 3.5% Pharmalytes pH 4.5-5.3 (Pharmacia) and 3.5% Ampholines pH 3.5-10 (LKB), run at 13W for 3.5 hours until a constant voltage was reached. The gel section was placed on a slab of 10% acrylamide SDS-PAGE and electrophoresed for 3.5 hours at 40 mA according to the protocol cited. The proteins were transferred overnight in phosphate buffer to 0.1 micron nitrocellulose (Schleicher and Schuell) at 0.2A. The blot was rinsed in blot solution (25 mM Tris-CHl pH 7.5, 0.171 M NaCl, 0.05% Tween-20; Sigma). The first antibody incubation was overnight at room temperature with a […] of goat anti-Amb a I IgC (obtained from Dr. David Marsh) in blot solution. The excess first antibody was removed with three 15 minute rinses with blot solution. The second antibody was a 1:2,500 dilution of biotinylated swine anti-goat IgG (Boehringer-Manneheim) in blot solution for two hours. The blot was then rinsed with blot solution three times for 15 minutes and incubated for 1 hr in blot solution with 2 μCi I^125 streptavidin (Amersham). The blots were rinsed with blot solution until the waste wash was down to background. The blot was then exposed to film at —80° C. overnight. In the case of one-dimensional SDS-PAGE Western blots (FIGS. 17, 19 and 20) the isoelectric focusing step was omitted. When human sera was used to probe the Western blots (FIGS. 17 and 20), 10% human plasma in 1% milk in blot solution was incubated overnight with the blot prior to using as second antibody biotinylated goat anti-human IgE.

[3] = patient 151 2° (secondary assay)
[4] = patient 222 2° (secondary assay)
[5] = patient 274 2° (secondary assay)
[6] = patient 296 2° (secondary assay)
[7] = patient 314 2° (secondary assay)
[8] = patient 316 2° (secondary assay)
[9] = patient 319 2° (secondary assay)
[10] = patient 320 2° (secondary assay)
[11] = patient 321 2° (secondary assay)
[12] = patient 295 2° (secondary assay)

B1: affinity purified Amb a I: protein affinity purified from pollen extract with monoclonal antibody 4B5/B7 (protein)
chain: AEDLQEILPVNETRRLTTSGAYNIIDGCWRGKADWAENRKALADCAQGFGKGTVGGKDGDIYTVTSELDDDVANPKEGTLRFGAAQNRPLWIIFERDMVIRLDKEMVVNSDKTIDGRGAKVEIINAGFTLNGVKNVIIHNINMHDVKVNPGGLIKSNDGPAAPRAGSDGDAISISGSSQIWIDHCSLSKSVDGLVDAKLGTTRLTVSNSLFTQHQFVLLFGAGDENIEDRGMLATVAFNTFTDNVDQRMPRCRHGFFQVVNNNYDKWGSYAIGGSASPTILSQGNRFCAPDERSKKNVLGRHGEAAAESMKWNWRTNKDVLENGAIFVASGVDPVLTPEQSAGMIPAEPGESALSLTSSAGVLSCQPGAPC
B1 was tested, and the “T cell recognition and proliferation (in words)” value [1] was “proliferate”, the “T cell response in secondary assay (in words)” value ([1]; one ragweed allergic patient, FIG. 21) was “responded” and the “Stimulatory response of human T cells (proliferation compared to medium control)” value [1, 3] was “(+) (2 fold)”. For the same molecule, the “Stimulatory response of human T cells (proliferation compared to medium control)” value [1, 4] was “+++ (>10 fold)”, the “Stimulatory response of human T cells (proliferation compared to medium control)” value [1, 5] was “++ (4-10 fold)” and the “Stimulatory response of human T cells (proliferation compared to medium control)” value [1, 6] was “+++ (>10 fold)”. The “Stimulatory response of human T cells (proliferation compared to medium control)” value [1, 7] was “+++ (>10 fold)”, the “Stimulatory response of human T cells (proliferation compared to medium control)” value [1, 8] was “+++ (>10 fold)” and the “Stimulatory response of human T cells (proliferation compared to medium control)” value [1, 9] was “++ (4-10 fold)”. For the same molecule, the “Stimulatory response of human T cells (proliferation compared to medium control)” value [1, 10] was “+++ (>10 fold)” and the “Stimulatory response of human T cells (proliferation compared to medium control)” value [1, 11] was “+ (2-4 fold)”.

B2: Amb a IC: E. coli expressed recombinant Amb a IC, used as crude bacterial lysate (protein)
chain: LYFTLALVALLQPVRSAEGVGEILPSVNETRSLQACEALNIIDKCWRGKADWENNRQALADCAQGFAKGTYGGKWGDVYTVTSNLDDDVANPKEGTLRFAAAQNRPLWIIFKNDMVINLNQELVVNSDKTIDGRGVKVEIINGGLTLMNVKNIIIHNINIHDVKVLPGGMIKSNDGPPILRQASDGDTINVAGSSQIWIDHCSLSKSFDGLVDVTLGSTHVTISNCKFTQQSKAILLGADDTHVQDKGMLATVAFNMFTDNVDQRMPRCRFGFFQVVNNNYDRWGTYAIGGSSAPTILCQGNRFLAPDDQIKKNVLARTGTGAAESMAWNWRSDKDLLENGAIFVTSGSDPVLTPVQSAGMIPAEPGEAAIKLTSSAGVFSCRPGAPC
In the case of B2, the “T cell recognition and proliferation (in words)” value [1] is reported as “proliferate”, the “Stimulatory response of human T cells (proliferation compared to medium control)” value [1, 3] is reported as “+ (2-4 fold)” and the “Stimulatory response of human T cells (proliferation compared to medium control)” value [1, 4] is reported as “++ (4-10 fold)”. The “Stimulatory response of human T cells (proliferation compared to medium control)” value [1, 5] was “++ (4-10 fold)”, the “Stimulatory response of human T cells (proliferation compared to medium control)” value [1, 12] was “+ (2-4 fold)” and the “Stimulatory response of human T cells (proliferation compared to medium control)” value [1, 6] was “+++ (>10 fold)”. For the same molecule, the “Stimulatory response of human T cells (proliferation compared to medium control)” value [1, 7] was “+++ (>10 fold)”, the “Stimulatory response of human T cells (proliferation compared to medium control)” value [1, 8] was “+++ (>10 fold)” and the “Stimulatory response of human T cells (proliferation compared to medium control)” value [1, 9] was “++ (4-10 fold)”. For the same molecule, the “Stimulatory response of human T cells (proliferation compared to medium control)” value [1, 11] was “+ (2-4 fold)” and the “Binding by goat anti-Amb a I antibody (in words)” value (“Binding” for short) [2] was “binds specifically”.

B3: Amb a IA: full-length recombinant Amb a IA, amino acid 10-398, E. coli expressed, used as crude bacterial lysate (protein)
chain: LYFTLALVTLLQPVRSAEDLQEILPVNETRRLTTSGAYNIIDGCWRGKADWAENRKALADCAQGFGKGTVGGKDGDIYTVTSELDDDVANPKEGTLRFGAAQNRPLWIIFERDMVIRLDKEMVVNSDKTIDGRGAKVEIINAGFTLNGVKNVIIHNINMHDVKVNPGGLIKSNDGPAAPRAGSDGDAISISGSSQIWIDHCSLSKSVDGLVDAKLGTTRLTVSNSLFTQHQFVLLFGAGDENIEDRGMLATVAFNTFTDNVDQRMPRCRHGFFQVVNNNYDKWGSYAIGGSASPTILSQGNRFCAPDERSKKNVLGRHGEAAAESMKWNWRTNKDVLENGAIFVASGVDPVLTPEQSAGMIPAEPGESALSLTSSAGVLSCQPGAPC
For B3, the “T cell recognition and proliferation (in words)” value [1] was “proliferate”, the “Stimulatory response of human T cells (proliferation compared to medium control)” value [1, 3] was “(+) (2 fold)” and the “Stimulatory response of human T cells (proliferation compared to medium control)” value [1, 4] was “++ (4-10 fold)”. The “Binding” value [2] was “binds specifically”.

B4: Amb a IB: E. coli expressed recombinant Amb a IB, used as crude bacterial lysate (protein)
chain: LYFTLALVTLLQPVRSAEDVEEFLPSANETRRSLKACEAHNIIDKCWRCKADWANNRQALADCAQGFAKGTYGGKHGDVYTVTSDKDDDVANPKEGTLRFAAAQNRPLWIIFKRNMVIHLNQELVVNSDKTIDGRGVKVNIVNAGLTLMNVKNIIIHNINIHDIKVCPGGMIKSNDGPPILRQQSDGDAINVAGSSQIWIDHCSLSKASDGLLDITLGSSHVTVSNCKFTQHQFVLLLGADDTHYQDKGMLATVAFNMFTDHVDQRMPRCRFGFFQVVNNNYDRWGTYAIGGSSAPTILSQGNRFFAPDDIIKKNVLARTGTGNAESMSWNWRTDRDLLENGAIFLPSGSDPVLTPEQKAGMIPAEPGEAVLRLTSSAGVLSCHQGAPC
B4 was tested, and the “T cell recognition and proliferation (in words)” value [1] was “proliferate”, the “Stimulatory response of human T cells (proliferation compared to medium control)” value [1, 3] was “+ (2-4 fold)” and the “Stimulatory response of human T cells (proliferation compared to medium control)” value [1, 5] was “+ (2-4 fold)”. For the same molecule, the “Stimulatory response of human T cells (proliferation compared to medium control)” value [1, 12] was “+ (2-4 fold)”, the “Stimulatory response of human T cells (proliferation compared to medium control)” value [1, 6] was “+++ (>10 fold)” and the “Stimulatory response of human T cells (proliferation compared to medium control)” value [1, 7] was “+++ (>10 fold)”. The “Stimulatory response of human T cells (proliferation compared to medium control)” value [1, 8] was “++ (4-10 fold)”, the “Stimulatory response of human T cells (proliferation compared to medium control)” value [1, 9] was “(+) (2 fold)” and the “Stimulatory response of human T cells (proliferation compared to medium control)” value [1, 10] was “+ (2-4 fold)”. For the same molecule, the “Stimulatory response of human T cells (proliferation compared to medium control)” value [1, 11] was “++ (4-10 fold)” and the “Binding” value [2] was “binds specifically”.
